Values of other authors, collected in paper PMC7191063.

Columns and labels:
trypsin (Bos taurus) [1] = target: trypsin (Bos taurus) (UniProt P00760)
trypsin (Bos taurus) [2] = target: trypsin (Bos taurus) (UniProt P00760); remark: listed apart in the source

Sequence of UniProt P00760 (P00760 149-246): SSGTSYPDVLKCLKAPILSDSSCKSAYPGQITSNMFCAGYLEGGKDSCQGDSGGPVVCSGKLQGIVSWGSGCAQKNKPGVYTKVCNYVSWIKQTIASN

Substance: BWI-2c (from UniProt P86794)
- Ki (trypsin (Bos taurus) [1]): 0.174 nM

Substance: VhTI (from UniProt P85981)
- Kd (trypsin (Bos taurus) [2]): < 1 nM
